The values that follow come from publication PMC12102759 (2025).

B1: PEX5 peptide 110-125 (Peroxisomal targeting signal 1 receptor), 16-mer library wild type / PEX14 Pex14 (PEX14 PEX14, residues 16-84) (parent complex)
chain 1: ADLALSENWAQEFLAA
chain 2: TPGSENVLPREPLIATAVKFLQNSRVRQSPLATRRAFLKKKGLTDEEIDMAFQQSGTAADEPSSLGPAT

This test covers variants of B1. Nature of the test: proteomic peptide phage display deep mutational scan (ProP-PD DMS): M13 P8 16-mer library selected against immobilised GST-tagged bait for four days (rounds), NGS of the eluted pools per day and pseudo-replica; bait immobilised on MaxiSorp plates (10 µg), library pre-cleared on GST, 2 h binding at 4 °C, five washes; one round per day, days 1-4; value from days 2 and 3.
Turning to chain 1 A4I, the screen value is 0.000694 average fractional NGS count over selection days 2 and 3 (reads of this peptide / all reads for the bait, averaged over …. Under chain 1 A4P stands 0.00132 average fractional NGS count over selection days 2 and 3 (reads of this peptide / all reads for the bait, averaged over …; under chain 1 A4H, 0.00244 average fractional NGS count over selection days 2 and 3 (reads of this peptide / all reads for the bait, averaged over …; under chain 1 A4V, 0.000411 average fractional NGS count over selection days 2 and 3 (reads of this peptide / all reads for the bait, averaged over …. Take chain 1 A15P: the screen value is 0.00041 average fractional NGS count over selection days 2 and 3 (reads of this peptide / all reads for the bait, averaged over …. Under chain 1 A15H stands 0.000537 average fractional NGS count over selection days 2 and 3 (reads of this peptide / all reads for the bait, averaged over …; under chain 1 A15M, 0.000398 average fractional NGS count over selection days 2 and 3 (reads of this peptide / all reads for the bait, averaged over ….

Take chain 1 A15F: the screen value is 0.000391 average fractional NGS count over selection days 2 and 3 (reads of this peptide / all reads for the bait, averaged over …. Take chain 1 A15L: the screen value is 0.00105 average fractional NGS count over selection days 2 and 3 (reads of this peptide / all reads for the bait, averaged over …. For the variant chain 1 A10T, the screen value is 0.000469 average fractional NGS count over selection days 2 and 3 (reads of this peptide / all reads for the bait, averaged over ….

With chain 1 A10Y, the screen value was 0.0104 average fractional NGS count over selection days 2 and 3 (reads of this peptide / all reads for the bait, averaged over …. In the case of chain 1 A10E, the screen value is 0.000658 average fractional NGS count over selection days 2 and 3 (reads of this peptide / all reads for the bait, averaged over ….

Consider chain 1 A10W, for which the screen value was 0.00181 average fractional NGS count over selection days 2 and 3 (reads of this peptide / all reads for the bait, averaged over ….

Take chain 1 E12I: the screen value is 0.00181 average fractional NGS count over selection days 2 and 3 (reads of this peptide / all reads for the bait, averaged over ….

With chain 1 E12H, the screen value was 0.00205 average fractional NGS count over selection days 2 and 3 (reads of this peptide / all reads for the bait, averaged over …. For chain 1 E12P, the screen value is 0.000686 average fractional NGS count over selection days 2 and 3 (reads of this peptide / all reads for the bait, averaged over …. Take chain 1 E12W: the screen value was 0.0033 average fractional NGS count over selection days 2 and 3 (reads of this peptide / all reads for the bait, averaged over …. For chain 1 E12V the value was 0.00245 average fractional NGS count over selection days 2 and 3 (reads of this peptide / all reads for the bait, averaged over …; for chain 1 E12S, 0.00196 average fractional NGS count over selection days 2 and 3 (reads of this peptide / all reads for the bait, averaged over …; for chain 1 L5M, 0.000827 average fractional NGS count over selection days 2 and 3 (reads of this peptide / all reads for the bait, averaged over ….

For the variant chain 1 L5H, the screen value is 0.00347 average fractional NGS count over selection days 2 and 3 (reads of this peptide / all reads for the bait, averaged over …. For chain 1 L5K the value was 0.000511 average fractional NGS count over selection days 2 and 3 (reads of this peptide / all reads for the bait, averaged over …. Regarding chain 1 L5T, the screen value is 0.000402 average fractional NGS count over selection days 2 and 3 (reads of this peptide / all reads for the bait, averaged over …. As for chain 1 L5P, the screen value was 0.000702 average fractional NGS count over selection days 2 and 3 (reads of this peptide / all reads for the bait, averaged over …. For chain 1 A1E the value was 0.00113 average fractional NGS count over selection days 2 and 3 (reads of this peptide / all reads for the bait, averaged over …. Turning to chain 1 A1N, the screen value is 0.00108 average fractional NGS count over selection days 2 and 3 (reads of this peptide / all reads for the bait, averaged over …. Consider chain 1 A1T, for which the screen value is 0.00109 average fractional NGS count over selection days 2 and 3 (reads of this peptide / all reads for the bait, averaged over …. In the case of chain 1 A1G, the screen value was 0.000525 average fractional NGS count over selection days 2 and 3 (reads of this peptide / all reads for the bait, averaged over ….

On to chain 1 F13H, for which the screen value was 0.00342 average fractional NGS count over selection days 2 and 3 (reads of this peptide / all reads for the bait, averaged over …. Take chain 1 F13R: the screen value was 0.000386 average fractional NGS count over selection days 2 and 3 (reads of this peptide / all reads for the bait, averaged over …. In the case of chain 1 F13I, the screen value was 0.000603 average fractional NGS count over selection days 2 and 3 (reads of this peptide / all reads for the bait, averaged over …. For the variant chain 1 F13Y, the screen value is 0.00124 average fractional NGS count over selection days 2 and 3 (reads of this peptide / all reads for the bait, averaged over …. Under chain 1 S6F stands 0.00174 average fractional NGS count over selection days 2 and 3 (reads of this peptide / all reads for the bait, averaged over …; under chain 1 S6E, 0.00164 average fractional NGS count over selection days 2 and 3 (reads of this peptide / all reads for the bait, averaged over …; under chain 1 S6R, 0.00161 average fractional NGS count over selection days 2 and 3 (reads of this peptide / all reads for the bait, averaged over …. In the case of chain 1 S6H, the screen value is 0.00186 average fractional NGS count over selection days 2 and 3 (reads of this peptide / all reads for the bait, averaged over ….

Consider chain 1 S6N, for which the screen value is 0.000624 average fractional NGS count over selection days 2 and 3 (reads of this peptide / all reads for the bait, averaged over …. For chain 1 S6L the value was 0.00108 average fractional NGS count over selection days 2 and 3 (reads of this peptide / all reads for the bait, averaged over …; for chain 1 S6G, 0.000749 average fractional NGS count over selection days 2 and 3 (reads of this peptide / all reads for the bait, averaged over …; for chain 1 L3M, 0.00299 average fractional NGS count over selection days 2 and 3 (reads of this peptide / all reads for the bait, averaged over …. For chain 1 L3I the value was 0.000729 average fractional NGS count over selection days 2 and 3 (reads of this peptide / all reads for the bait, averaged over …; for chain 1 L3T, 0.000563 average fractional NGS count over selection days 2 and 3 (reads of this peptide / all reads for the bait, averaged over …; for chain 1 L3N, 0.000429 average fractional NGS count over selection days 2 and 3 (reads of this peptide / all reads for the bait, averaged over …. On to chain 1 L3W, for which the screen value is 0.000685 average fractional NGS count over selection days 2 and 3 (reads of this peptide / all reads for the bait, averaged over …. Under chain 1 L3Q stands 0.00182 average fractional NGS count over selection days 2 and 3 (reads of this peptide / all reads for the bait, averaged over …. Under chain 1 L3A stands 0.00097 average fractional NGS count over selection days 2 and 3 (reads of this peptide / all reads for the bait, averaged over ….

With chain 1 E7R, the screen value is 0.00247 average fractional NGS count over selection days 2 and 3 (reads of this peptide / all reads for the bait, averaged over …. In the case of chain 1 E7L, the screen value was 0.00102 average fractional NGS count over selection days 2 and 3 (reads of this peptide / all reads for the bait, averaged over …. As for chain 1 E7G, the screen value is 0.00129 average fractional NGS count over selection days 2 and 3 (reads of this peptide / all reads for the bait, averaged over …. For the variant chain 1 E7S, the screen value was 0.00412 average fractional NGS count over selection days 2 and 3 (reads of this peptide / all reads for the bait, averaged over …. With chain 1 E7Y, the screen value is 0.00176 average fractional NGS count over selection days 2 and 3 (reads of this peptide / all reads for the bait, averaged over ….

As for chain 1 E7W, the screen value was 0.0042 average fractional NGS count over selection days 2 and 3 (reads of this peptide / all reads for the bait, averaged over …. For chain 1 E7T the value was 0.00188 average fractional NGS count over selection days 2 and 3 (reads of this peptide / all reads for the bait, averaged over …; for chain 1 E7F, 0.000467 average fractional NGS count over selection days 2 and 3 (reads of this peptide / all reads for the bait, averaged over …. Turning to chain 1 E7N, the screen value was 0.00129 average fractional NGS count over selection days 2 and 3 (reads of this peptide / all reads for the bait, averaged over ….

Take chain 1 E7A: the screen value is 0.00398 average fractional NGS count over selection days 2 and 3 (reads of this peptide / all reads for the bait, averaged over …. Turning to chain 1 E7P, the screen value is 0.00244 average fractional NGS count over selection days 2 and 3 (reads of this peptide / all reads for the bait, averaged over …. As for chain 1 D2A, the screen value is 0.00157 average fractional NGS count over selection days 2 and 3 (reads of this peptide / all reads for the bait, averaged over …. For chain 1 D2W the value was 0.000382 average fractional NGS count over selection days 2 and 3 (reads of this peptide / all reads for the bait, averaged over …; for chain 1 D2P, 0.00139 average fractional NGS count over selection days 2 and 3 (reads of this peptide / all reads for the bait, averaged over …; for chain 1 D2R, 0.000895 average fractional NGS count over selection days 2 and 3 (reads of this peptide / all reads for the bait, averaged over ….

For chain 1 D2Y, the screen value is 0.000446 average fractional NGS count over selection days 2 and 3 (reads of this peptide / all reads for the bait, averaged over ….

As for chain 1 D2K, the screen value was 0.000496 average fractional NGS count over selection days 2 and 3 (reads of this peptide / all reads for the bait, averaged over …. As for chain 1 D2L, the screen value was 0.000809 average fractional NGS count over selection days 2 and 3 (reads of this peptide / all reads for the bait, averaged over …. Consider chain 1 L14T, for which the screen value was 0.00188 average fractional NGS count over selection days 2 and 3 (reads of this peptide / all reads for the bait, averaged over …. As for chain 1 L14K, the screen value is 0.000342 average fractional NGS count over selection days 2 and 3 (reads of this peptide / all reads for the bait, averaged over …. As to chain 1 L14S, the screen value was 0.00136 average fractional NGS count over selection days 2 and 3 (reads of this peptide / all reads for the bait, averaged over …. In the case of chain 1 L14F, the screen value was 0.00346 average fractional NGS count over selection days 2 and 3 (reads of this peptide / all reads for the bait, averaged over …. chain 1 L14Q: the screen value was 0.000996 average fractional NGS count over selection days 2 and 3 (reads of this peptide / all reads for the bait, averaged over …. For chain 1 Q11F, the screen value is 0.000569 average fractional NGS count over selection days 2 and 3 (reads of this peptide / all reads for the bait, averaged over …. Regarding chain 1 Q11L, the screen value was 0.00081 average fractional NGS count over selection days 2 and 3 (reads of this peptide / all reads for the bait, averaged over …. Under chain 1 Q11H stands 0.00141 average fractional NGS count over selection days 2 and 3 (reads of this peptide / all reads for the bait, averaged over …. For chain 1 N8G the value was 0.00135 average fractional NGS count over selection days 2 and 3 (reads of this peptide / all reads for the bait, averaged over …; for chain 1 N8W, 0.00165 average fractional NGS count over selection days 2 and 3 (reads of this peptide / all reads for the bait, averaged over …; for chain 1 N8P, 0.000567 average fractional NGS count over selection days 2 and 3 (reads of this peptide / all reads for the bait, averaged over ….
